Measurements: PMC4266597, “Ultrastable cellulosome-adhesion complex tightens under load” (Nature Communications, 2014)

How the values were obtained:
[1] = target: T1, T129C Xyn-XMod-Doc protein (R. flavefaciens XMod-Doc from the CttA scaffoldin fused to the XynT6 xylanase … (Ruminococcus flavefaciens strain FD1, UniProt A0AEF5 565-803, engineered cysteine (T129C in the xylanase) coupled to a 5 kDa NHS-PEG-Mal linker on the cover glass or cantilever)); assay: AFM single-molecule force spectroscopy; as a1, but final Doc:Coh rupture immediately following XMod unfolding (35–40% of traces); Bell-Evans fit; settings: both partners purified
T1 construct: X-module and dockerin (XMod-Doc) of the CttA scaffoldin of Ruminococcus flavefaciens strain FD1; The Xyn domain is a marker (fingerprint) and immobilisation domain and is written as a carrier under tags; Addgene 60865 holds the plasmid; also called XynT6-XDoc T129C; Xylanase-Xmodule-Dockerin; source: E. coli BL21, purified (Ni-NTA); not shown: XynT6 xylanase from Geobacillus stearothermophilus …
T1 sequence: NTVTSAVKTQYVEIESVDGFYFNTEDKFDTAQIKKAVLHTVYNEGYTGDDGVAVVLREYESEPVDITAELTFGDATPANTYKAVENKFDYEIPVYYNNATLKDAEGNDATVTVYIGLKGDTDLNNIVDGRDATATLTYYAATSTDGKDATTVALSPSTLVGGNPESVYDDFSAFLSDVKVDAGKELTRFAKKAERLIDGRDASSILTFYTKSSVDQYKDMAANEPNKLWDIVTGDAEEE

[2] = target: T1, T129C Xyn-XMod-Doc protein (R. …); assay: AFM single-molecule force spectroscopy; both partners covalently immobilised through PEG linkers; configuration I: Coh-CBM on the cantilever, Xyn-XMod-Doc on the cover glass (configuration II the reverse); Ca-TBS (25 mM TRIS, 72 mM NaCl, 1 mM CaCl2, pH 7.2); pulling speeds 0.2 to 6.4 um/s; final complex rupture with intact XMod; Bell-Evans fit; settings: both partners purified

koff of the rupture following XMod unfolding [1]: 0.00047 s⁻¹ | rupture force following XMod unfolding [1]: ~300 pN | koff [2]: 7.3e-07 s⁻¹
B1: Coh-CBM C2A, C63S fusion protein (R. flavefaciens CohE from ScaE fused to cellulose-binding module 3a (CBM3a) from C. thermocellum), with ybbR tag (domain or fragment, Ruminococcus flavefaciens strain FD1)
chain: ALTDRGMTYDLDPKDGSSAATKPVLEVTKKVFDTAADAAGQTVTVEFKVSGAEGKYATTGYHIYWDERLEVVATKTGAYAKKGAALEDSSLAKAENNGNGVFVASGADDDFGADGVMWTVELKVPADAKAGDVYPIDVAYQWDPSKGDLFTDNKDSAQGKLMQAYFFTQGIKSSSNPSTDEYLVKANATYADGYIAIKAGEP
modifications: ybbR tag covalently linked to Coenzyme A on PEG by Sfp phosphopantetheinyl transferase
notes: cohesin CohE of the ScaE scaffoldin of Ruminococcus flavefaciens strain FD1; The CBM is a marker (fingerprint) and immobilisation domain and is written as a carrier under tags; C2A reverts the earlier A2C in the CBM; also called CohE-CBM C2A C63S; Coh-CBM-ybbR; source: E. coli BL21(DE3) RIPL, purified (Ni-NTA); not shown: CBM3a from C. thermocellum with C2A and C63S, C-terminal, kept
